Assay: yeast display, Sf9 membrane polyspecificity reagent, FACS + sequencing; frameworks hold sequencing errors
Summary of the method: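 Using colony PCR, genes from sorted yeast display clones were amplified, then sequenced on MiSeq at 2 × 250 and filtered by CDR length. The clones had been stained with 10% biotinylated, detergent-solubilized Sf9 membrane reagent for 1 hour at 4 °C and sorted by FACS into low and high (top ~1%) gates on anti-HA and streptavidin fluorescence. Polyreactivity labels come from the gate of origin.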

| Sequence | polyreactivity (PSR sort gate) |
| --- | --- |
| QVQLVESGGGLVQAGGSLRLSCAASGSTFKSYTMGWYRQAPGKERELVAAITSSGRTNYADSVKGRFTISRDNAKNTVYLQMNSLKPEDTAVYYCAARWYYYPLLYDYWGQGTQVTVSS | low polyreactivity |
| QVQLVESGGGLVQAGGSLRLSCAASGSTFKTYAMGWYRQAPGKEREFVAAINWRGTSTYYADSVKGRFTISRDNAKNTVYLQMNSLKPEDTAVYYCAAQRYGYGYQWYDHWGQGTQVTVSS | high polyreactivity |
| QVQLVESGGGLVQAGGSLRLSCAASGSTFKTYSMGWYRQAPGKERELVAAISGNGGSTYYADSVKGRFTISRDNAKNTVYLQMNILIPEDTAVYYCAAKRRRHFSRGYEYWGQGSQVTVSS | high polyreactivity |
| QVQLVESGGGLVQAGGSLRLSCAASGSTFKVYAMGWYRQAPGKEMELDAAISRSGGRTYYADSVKGRFTISRDNAKNTVYLQMNSLKPEDTAVYYCNRDYTYSQGHYSGSYDYWGQGTQVTVSS | high polyreactivity |
| QVQLVESGGGLVQAGGSLRLSCAASGSTFKVYAMGWYRQAPGKERELVAVISGGGRTNYADSVKGRFTISRDNAKNTVYLQMNSLKPEDTAVYYCAALGPYGSARRKYGYWGQGTQVTVSS | high polyreactivity |
| QVQLVESGGGLVQAGGSLRLSCAASGSTFKVYAMGWYRQAPGKESELVATISKSGSTYADSVKGRFTISRDNAKNTVYLQMNSLKPEDTAVYYCARVKYSGVVYKYDYWGQGTQVTVSS | high polyreactivity |
| QVQLVESGGGLVQAGGSLRLSCAASGSTFKWYAMGLYRQAPGKERELVAAIDSRGGSTYYADSVKGRFTISRDNAKNTVFLQMISLKPEDTAVYYCNIYPHYSFQSHNYWGQGTQVTVSS | high polyreactivity |
| QVQLVESGGGLVQAGGSLRLSCAASGSTFKYNAMGWYRQAPGKERELVARISWSGGSTYYADSVKGRFTISRDNAKNSVYLQMNSLKPEDTAVYYCAARSWWRGYSFYYWGQGTQVTVSS | high polyreactivity |
| QVQLVESGGGLVQAGGSLRLSCAASGSTFKYYAMGWYRQAPGKERELVARISIRGGSTYYADSVKGRFTISRDNAKNTVYLQMNSLKPEDTAVYYCAAVGYFGGYRYYYWGQGTQVTVSS | high polyreactivity |
| QVQLVESGGGLVQAGGSLRLSCAASGSTFKYYAMGWYRQAPGKERELVATITWSGTSTNYADSVKGRFTISRDNAKHTVYLQMHSLKPEDTAVYYCAARSKRRNYDYWGQGTQVTVSS | high polyreactivity |
| QVQLVESGGGLVQAGGSLRLSCAASGSTFKYYAMVWYRQAPGKERELVAAISRSGGRTYYADSVKGRFTISRDNAKNTVYLQMNSLKPEDTAVSLCNAVVARVNVRGTPAFDYWGQGTQVTVSS | high polyreactivity |
| QVQLVESGGGLVQAGGSLRLSCAASGSTFKYYGMGWYRQAPGKERELVAAITSGGSTYDADSVKGRFTISRDNAKTTVYLQRNSLKPEDTAVYYCNTQYYLYYPADYDYWGQGTQVTVSS | low polyreactivity |
| QVQLVESGGGLVQAGGSLRLSCAASGSTFLDYAMGWYRQAPGQERELVAAITSVGGTYADSVKGRFTISRDKAKNTVYLQKNSLKPEDTAGYYCAADADFWYYVVHRGSTFDYSGQGTQVTVSS | low polyreactivity |
| QVQLVESGGGLVQAGGSLRLSCAASGSTFLDYTMGWYRHAPGKERELVAVIYYRAGSTYYADSVKGRFTISRDNAKNTVYLQMNSLKPEDTAVYYCNADYYNFWRRRRYLWYESWGQGTQVTVSS | low polyreactivity |
| QVQLVESGGGLVQAGGSLRLSCAASGSTFLGYTMGWYRQAPGKERELVAAISRRGSSTYYADSVKGRFTISRDNAKNTVYLQMNSLKPEDTAVYYCAAYATSFRDGYWGQGTQVTVSS | high polyreactivity |
| QVQLVESGGGLVQAGGSLRLSCAASGSTFLHYAMGWYRQAPGKEREFTYYADSVKGRFTISRDNAKNTVYLHMNSLNPEDTAVYYCNAGPYWSPYGDDFGYWGQGTQVTVSS | low polyreactivity |
| QVQLVESGGGLVQAGGSLRLSCAASGSTFLKNAMGWSRQAPGKERELVAAISYSTTRTYYADSVKGRFTISRDNAKNTVYLQMNSLKPEDTAVYYCNKASYWGSGFDYWGQGTQVTVSS | low polyreactivity |
| QVQLVESGGGLVQAGGSLRLSCAASGSTFLLNTMGWYRQAPGKERELVAAISSITGDTYYADSVKGRFTISRDNAKNTVYLQMNSLNPEDTAVYYCAAYLSETRPYLYDYWGQGTQVTVSS | low polyreactivity |
| QVQLVESGGGLVQAGGSLRLSCAASGSTFLLYDMGWYRQAPGKERELVAAITWSGGSTYYADSVKGRFTISRDNAKNTVYLQMNSLKPEDTAVYYCAADSLGDRYYYWGQGTQVTVSS | low polyreactivity |
| QVQLVESGGGLVQAGGSLRLSCAASGSTFLNYAMGWYRQAPGKERELVAAISGRGGRTYYADSVKGRFTISRDNAKNTVYLLMNSLKPEDTAVYYCAARKWVSYTSYDYWGQGTQVTVSS | high polyreactivity |
| QVQLVESGGGLVQAGGSLRLSCAASGSTFLPNAMGWYRQAPGKERELVAAISYRGGGTFYADSVKGRFTISRDNAKNTVYLQMNSLKPEDTAVYYCADDWSWFDNFDYWGQGTQVTVSS | low polyreactivity |
| QVQLVESGGGLVQAGGSLRLSCAASGSTFLRNAMGWYRQAPGKERELVAAISWSAGSTYYADSVKGRFTISRDNAKNTVYLQMNSLKPEDTAVYYCAVDKYVFVSYSFYFEYDYWGQGTQVTVSS | low polyreactivity |

| Sequence | polyreactivity (PSR sort gate) |
| --- | --- |
| QVQLVESGGGLVQAGGSLRLSCAASGSTFLRYAMGWYRQAPGKERELVAAISVSGGSTYYADSVKGRFTISRDNAKNTVYLQMNCLKPEDTAVYYCAAVYKRLQPYGYWGQGTQVTVSS | high polyreactivity |
| QVQLVESGGGLVQAGGSLRLSCAASGSTFLRYAMGWYRQAPGTERELVAALSYSGGSTYYADSVKGRFTISRDTAKKTVSLQMNSLKPEDTAVYYCNAGVFANDNGGRLDQFTWEYEYWGQGTQVTVSS | low polyreactivity |
| QVQLVESGGGLVQAGGSLRLSCAASGSTFLRYTMGWYRQAPGKARELVAAITRSGGSTYYADSVKGRFTISRDTAKNTVYLQMNSLKPEDTAVYYCAKRYRVAYGYWGQGTQVTVSS | high polyreactivity |
| QVQLVESGGGLVQAGGSLRLSCAASGSTFLSNAMGWYRQAPGKERELVASINWIGGSTRYADSVKGRFTISRDNAKNTVYLQMNSLKPEDTAVYYCAVELWWKWPFYYWGQGTQVTVSS | high polyreactivity |
| QVQLVESGGGLVQAGGSLRLSCAASGSTFLSYAMGRYRQAPGKERELVAAITGSGGNTYYADSVKGRFTISRDNAKNSVYLQMNSLKPEDTAVYYCAADTSYWYDYYIDYVGYYYWGQGTQVTVSS | high polyreactivity |
| QVQLVESGGGLVQAGGSLRLSCAASGSTFLSYAMGWYRQAPGKEREMVAAISYSAGSTYYADSVKGRFTISRDNAKNTVYLQMNSLKPEDTAVYYCGAVQLVPGYVDSNDYYWGQGTQVTVSS | low polyreactivity |
| QVQLVESGGGLVQAGGSLRLSCAASGSTFLSYVMGWYRQAPGKERELVAAISGITGSTYYADSVKGRFTLSRDNAKNTVYLQMNSLKPQDTAVYYWAKVYGYNRLFYYRYDYWGQGTQVTVSS | high polyreactivity |
| QVQLVESGGGLVQAGGSLRLSCAASGSTFLSYVMGWYRQAPGKERELVAAITGTGGRTYYADSVKGRFTISRDNAKNTVYLQMNSLKPEDSAVYYCTAYRKHGYDYWGQGTQVTVSS | high polyreactivity |
| QVQLVESGGGLVQAGGSLRLSCAASGSTFLTNDMGWYRQAHGKERELVAVITDGDTTYADSVKGRFTISRDNAKNTVYLQMNSLKPEDTAVYYCAADENYWSAGYDYWGQGTQVTVSS | low polyreactivity |
| QVQLVESGGGLVQAGGSLRLSCAASGSTFLTNVMGWYRQAPGKERELVAAITIGGSTNYADSVKGRFTISRDNAKNTVYLQMNSLKPEDTAVYYCATDIRRKPRYVDYEYWGQGTQVTVSS | low polyreactivity |
| QVQLVESGGGLVQAGGSLRLSCAASGSTFLVYAMGWYRQAPGKERELVAAIRSGGRTYYADSVKGRFTISRDNAKNTVYLQMNSLKPEDTAVYYCAADVLLRYGYRGYDYWGQGTQVTVSS | low polyreactivity |
| QVQLVESGGGLVQAGGSLRLSCAASGSTFLVYAMGWYRQAPGKERELVADITSRGGSTYYADSVKGRFTISRDNAKNTVYLQMISLKPEDTAVYYCAARKRFVLFDYWGQGTQVTVSS | low polyreactivity |
| QVQLVESGGGLVQAGGSLRLSCAASGSTFLVYAMGWYRQAPGKERELVAVITYSTVRTYYADSVKGRFTISRDNAKNTVYLQMNSLKPEDTAVYYCNADKEFAVLGQGMDYWGQGTQVTVSS | low polyreactivity |
| QVQLVESGGGLVQAGGSLRLSCAASGSTFLYNAMGWYRQAPGKERELVAAITIGGGSTYYADSVKGRFTISRDNAKNTVYLQMNSLKPEDTAVYYCNKGSYYWWDPGSTYIDDYWGQGTQVTVSS | low polyreactivity |
| QVQLVESGGGLVQAGGSLRLSCAASGSTFLYNRMGWYRQAPGKERELVAAISSVGSTYYADSVKGRFTISRDNAKNTVYLQMNSLKPEDSAVYYCAASYDWRAYRRDFYYWLTGDYWGQGTQVTVSS | low polyreactivity |
| QVQLVESGGGLVQAGGSLRLSCAASGSTFLYNTMGWYRQSPGKERELVAAITWSGGNTYYADSVKGRFTISRDNAKNTVYLQMNSLKPEDTAVYYCNAVWYPPKRKGFDYWGQGTQVTVSS | low polyreactivity |
| QVQLVESGGGLVQAGGSLRLSCAASGSTFLYYAMGWYRQAPGKERELVAAIRVGGGRTYYADSVKGRFTISRDNAKNTVYLQMNSLKPEDTAVYYCAAKRRHRVPFDYWGQGTQVTVSS | high polyreactivity |
| QVQLVESGGGLVQAGGSLRLSCAASGSTFLYYAMGWYRQAPGKERELVAVISWSGVSTYYADSVKGRFTISRDNAKNTVYLQMNSLKPEDTAVYYCNTGNHYIRTYGYWGQGSQVTVSS | low polyreactivity |
| QVQLVESGGGLVQAGGSLRLSCAASGSTFLYYAMGWYRQAPGKERELVAVISWSGVSTYYADSVKGRFTISRDNAKNTVYLQMNSLTPEDTAVYYCNTGNHYIRTYGYWGQGTQVTVSS | low polyreactivity |
| QVQLVESGGGLVQAGGSLRLSCAASGSTFLYYDMGWYRQAPGKERELVADITWSGSGTYYADSVKGRFTISRDNAKNTVYLQMNSLKPEDTAVYYCAADDTWRGDQYFYSYDYWGQGTQVTVSS | low polyreactivity |
| QVQLVESGGGLVQAGGSLRLSCAASGSTFLYYGMGWYRQSPGYERELVATITWRGGRTYYADSVKGRYTISRDNAKNTVYLQMNSLKPEDTAVYYCARVRLTTYGYYSWGQGTQVTVSS | high polyreactivity |

Reference: the nanobody polyreactivity screen of Harvey et al. (2022)
